Data taken from paper PMC3858372, “Cell Cycle-Dependent Turnover of 5-Hydroxymethyl Cytosine in Mouse Embryonic Stem Cells”.

T1: Uhrf1 (Np95) SRA domain (mouse, UniProt Q8VDF2 405-613)
T1 sequence: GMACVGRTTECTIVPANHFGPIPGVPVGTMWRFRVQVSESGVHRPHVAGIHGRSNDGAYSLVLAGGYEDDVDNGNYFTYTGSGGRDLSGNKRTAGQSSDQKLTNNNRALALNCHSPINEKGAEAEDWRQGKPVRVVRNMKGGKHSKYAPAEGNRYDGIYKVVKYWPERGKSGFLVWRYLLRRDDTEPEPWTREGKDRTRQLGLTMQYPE

B1: CG/5mCG (hemi-methylated 12-bp) (dsDNA)
DNA 1: CTACCGGATTGC
DNA 2: GCAATCCGGTAG
modifications: 5mC at position 7 of strand 2 (GCAATCXGGTAG, X = 5mC)

Key:
[1] = system: His-GST-MBD1 (1-75); assay: pull-down; conditions: 2 pg fragment mixed with 10 ug genomic DNA, 4 C overnight, q-PCR read-out, 5mC, PCR product, methylation procedure not detailed, EMSA/competition: 25 mM HEPES-NaOH pH 7.4, 0.1 M NaCl, 0.1 mM TCEP, 250 ng poly(dI-dC)(dI-dC), 30 min, 7.5% native PAGE in 1x TBE
[2] = target: T1, Uhrf1 (Np95) SRA domain; assay: EMSA; 0-3 uM SRA, 1 uM DNA, 250 ng poly(dI-dC); EMSA/competition: 25 mM HEPES-NaOH pH 7.4, 0.1 M NaCl, 0.1 mM TCEP, 250 ng poly(dI-dC)(dI-dC), 4 C, 30 min; 7.5% native PAGE in 1x TBE; conditions: protein: recombinant; blunt

Molecule | binding signal [1] [% recovered] | binding result [2]
methylated histone H3 DNA fragment | 90 | –
B1 | – | binds
